According to patent US20250059285A1 (ARGENX, published 2025):

T1: human Gal10-His (human, UniProt Q05315 2-142, limits assumed)
T1 construct: also called hGal10-His; human Gal10-His tagged; not shown: His tag
T1 sequence: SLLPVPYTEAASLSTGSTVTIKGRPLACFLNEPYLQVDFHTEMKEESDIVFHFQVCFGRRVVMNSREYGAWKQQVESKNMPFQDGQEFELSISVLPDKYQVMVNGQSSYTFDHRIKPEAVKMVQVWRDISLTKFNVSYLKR

T2: recombinant human Charcot-Leyden crystals (crystalline galectin-10) (human, UniProt Q05315 2-142, limits assumed)
T2 sequence: T1 sequence

B1: g20H09 (Fab) (Fab, V domains shown)
VH: EVQLLESGGGLVQPGGSLRLSCAASGFTFRSYDMSWVRQAPGKGLEWVSAIKWHRITYYADSVKGRFTISRDNSKNTLYLQMNSLRAEDTAVYYCATTHGIGTLGFGSWGQGTLVTVSS
VL: SYELTQPLSVSVALGQTARITCDGNNIGSKSAQWYQQKPGQAPVLVIYADEYRPEGIPERFSGSNSGNTATLTISRAQAGDEADYYCQVWDGSAAVFGGGTQLTVL
notes: same VH/VL
B2: g24F02_N53A (human Fab) (Fab, V domains shown)
VH: EVQLLESGGGLVQPGGSLRLSCAASGFTFSSYAMSWVRQAPGKGLEWVSAINAGGGSTSYADSVKGRFTISRDNSKNTLYLQMNSLRAEDTAVYYCAKGLRVGVLGFDYWGQGTLVTVSS
VL: B1 VL
notes: Human Fab backbone: human CH1 and human lambda constant domain (pUPEX vectors); also called g24F02_N53A_2W
B3: g7B07_N53A (human Fab) (Fab, V domains shown)
VH: EVQLLESGGGLVQPGGSLRLSCAASGFTFRSYDMSWVRQAPGKGLEWVSAIKAGGGITYYADSVKGRFTISRDNSKNTLYLQMNSLRAEDTAVYYCATTHGIGTLGFGSWGQGTLVTVSS
VL: B1 VL
notes: VH assembled by inference as for g7B07; Human Fab backbone; also called g7B07_N53A (mean)

How the values were obtained:
[1] = biological target: T1, human Gal10-His; assay: summary of periplasmic extract screening (BLI or SPR)
[2] = biological target: T1, human Gal10-His; assay: SPR, overview table of lead Fab candidates
[3] = biological target: T2, recombinant human Charcot-Leyden …; assay: cell-based or functional assay
[4] = biological target: T1, human Gal10-His; assay: SPR slope against calibrators on captured Gal10-His; T0 sample
Method: (§1) The binding properties of the seven selected clones following two weeks of temperature stress was analysed using an optimized capture method on a Biacore 3000 instrument. The binding properties of the stressed samples were determined, compared to the calibration point, and expressed as a percentage of Relative Activity (% RA).
(§2) Briefly, a capture method was set-up on a Biacore 3000 instrument. For this purpose, a CM5 chip was coated with a monoclonal anti-His antibody (4000 RU), then a fixed concentration of the human Gal10-His (25 μg/mL) was captured on the anti-His chip before receiving duplicate injections of the calibrators, QC samples and temperature stressed samples of each clone. The slope of each injected sample was then calculated using the BIA evaluation software. Concentrations of the QC samples and temperature stressed samples were back-calculated by interpolating the obtained slopes of these samples to the calibrator curve. Obtained values were within +/−20% of the nominal concentration of the tested samples and are expressed as average relative accuracy (avg % RA) (Table 13).

[5] = biological target: T1, human Gal10-His; assay: SPR Biacore 3000, purified hFab on captured Gal10-His
Method: (§3) The binding properties of the selected Fab clones to human Gal10 were analyzed via a capture method established on a Biacore 3000 instrument. Two concentrations of the selected Fab clones were tested on human Gal10-His immobilized on a CM5 chip coated with a monoclonal anti-His. As controls, the clone g7B07 and g7B07_N53A were injected at the beginning and the end of the run. Briefly, a CM5 chip was coated with a monoclonal anti-His antibody (4000 RU), then a fixed concentration of the human Gal10-His (25 μg/mL) was captured on the anti-His chip before receiving two concentrations of the clones in the human Fab backbone.

[6] = biological target: T1, human Gal10-His; assay: SPR against T0 reference; sample 4 weeks at 5 C, then nebulized
Method: (§4) The functional active concentration of the candidates was then assessed by SPR on a Biacore 3000 instrument (FIG. 4). All samples were evaluated with methods meeting the standard qualification criteria. Aliquots were tested at predefined test concentrations against titration curves from reference samples (T0, −80° C. storage) and in the presence of quality control (QC) samples covering a range of 70-130% relative activity (% RA) towards the reference material.
(§5) comparison/reference ⁽¹⁾ samples correspond to aliquots kept at +37° C. for 4 weeks ⁽²⁾ samples correspond to aliquots kept at +5° C. for 4 weeks prior to nebulization. In brief, samples were nebulized with an Aerogen Solo active vibrating mesh nebulizer that converted a drug solution into an inhalable aerosol. Three different devices for each time-point were used per clone and results are reported by the device (nebulizer) serial number. In case of device fouling, indicated by longer nebulization times […]

[7] = biological target: T1, human Gal10-His; assay: SPR slope against calibrators on captured Gal10-His; sample 2 weeks at 37 C
Method: as §1, §2

[8] = biological target: T1, human Gal10-His; assay: SPR, summary table, human Gal10
[9] = biological target: T1, human Gal10-His; assay: SPR Biacore 3000, Fab periplasmic extract on Gal10-His-coated CM5
Method: The binding properties of the Fabs (periplasmic extract) to human Gal10-His were analyzed by SPR with a Biacore 3000 instrument. For this purpose, the diluted periplasmic extract was applied on a CM5 chip coated with human Gal10-His. As a positive control, a 20 nM injection of the purified g7B07 clone in the human Fab backbone was included at the beginning and end of the run.
The binding capacity of the Fab periplasmic extract was analyzed by SPR technology using a Biacore 3000. Briefly, diluted periplasmic extracts were injected on CM5 chip coated with 2500 RU of Gal10-His. The amplitude of the binding (Rmax), the dissociation (off-rate) of each clone, as well as the off-rate fold change compared to the controls (g7B07 and g7B07_N53A) are indicated. Clones g20H09 and g23H09 had similar or better off rate compared to the control g7B07 (Table 10). The randomized part of the CDR2 sequence is underlined (Table 10).

[10] = biological target: T1, human Gal10-His; assay: SPR Biacore 3000, purified hFab (2 conc.) on Gal10-His captured by anti-His CM5
Method: as §3

[11] = biological target: T1, human Gal10-His; assay: competition ELISA on coated Gal10-His; hFab 20 ug/mL, competitor g7B07-hFab-Biot, streptavidin-HRP
Method: An epitope binning analysis of the humanized Fab clones was carried out in comparison with the humanized Fab of g7B07.
For this experiment, a sub-optimal concentration of the biotinylated clone g7B07-humanized Fab was added to the Gal10 coated plate and pre-incubated with the selected clones. The percentage competition with g7B07 was then determined (Table 17). Motavizumab (Mota) in a human Fab backbone was used as a negative control (0% competition). Clone g7B07 was used as the positive control for competition and was therefore set as the 100% competition value. The anti-human specific clone 1D11 (binding to Tyrosine 69 residue) was included in the tested panel as a negative control for competition with 7B07 for Gal10 binding because it was known that clone 1D11 binds to the opposite side of Gal10 (including Tyrosine 69).

[12] = biological target: T3, cynomolgus Gal10-His (WGS isoform) (cynomolgus); assay: SPR, summary table, cynomolgus_WGS Gal10
T3 construct: also called cynomolgus antigen

[13] = biological target: T1, human Gal10-His; assay: SPR against T0 reference; sample 4 weeks at 37 C
Method: as §4, §5

[14] = biological target: T1, human Gal10-His; assay: SPR Biacore 3000, hFab on captured human Gal10-His
Excerpt: (§6) For this purpose, two approaches were used. In the first, two concentrations of the selected clones were applied on cynomolgus (WGS isoform) Gal10-His capture on a CM5 chip coated with a monoclonal anti-His antibody. The second approach involved a serial dilution that was applied on human or cynomolgus (WGS isoform) Gal10-His in the same set-up.
Further characterization of the cynomolgus cross-reactivity of these clones highlighted g24F02_N53A and g23H09.

[15] = biological target: T1, human Gal10-His; assay: SPR Biacore 3000, hFab on human Gal10-His captured by anti-His CM5
Method: (§7) The binding properties of the selected clones to human and cynomolgus Gal10 was analyzed via a capture method established on a Biacore 3000 instrument.
as §6

[16] = biological target: T1, human Gal10-His; assay: SPR Biacore 3000, hFab on captured human Gal10-His; column head prints (M), the text gives nM
Method: as §7, §6

[17] = biological target: T3, cynomolgus Gal10-His (WGS isoform); assay: SPR Biacore 3000, hFab on cynomolgus Gal10-His (WGS) captured by anti-His CM5
Method: as §7, §6

[18] = biological target: T3, cynomolgus Gal10-His (WGS isoform); assay: SPR Biacore 3000, hFab on captured cynomolgus Gal10-His (WGS); column head prints (M), the text gives nM
Method: as §7, §6

Row | Binder | Kd [2] [nM] | koff [2] [s⁻¹] | crystal dissolution % Relative Activity towards the reference T0 after 2 h, nebulized [3] [%] | crystal dissolution % Relative Activity towards the reference T0 after 2 h, stressed [3] [%] | recGal10 crystal dissolution EC50 (T2 h), Assay 1, nebulized [3] [µg/mL] | recGal10 crystal dissolution EC50 (T2 h), Assay 1, stressed (4 W at 37 C) [3] [µg/mL] | recGal10 crystal dissolution EC50 (T2 h), Assay 1, unstressed (T0) [3] [µg/mL] | % Relative Activity (RA) on Biacore [4] [%] | % relative activity by SPR [6] [%] | % Relative Activity (RA) on Biacore [7] [%] | Kd [8] [nM] | koff [8] [s⁻¹] | Kd [10] [nM] | kd-fold drop vs g7B07 [10] [fold] | koff [10] [s⁻¹] | kon [10] [M⁻¹ s⁻¹] | % Competition against g7B07-Biot [11] [%] | Mean OD value [11] [OD] | Kd [12] [nM] | % relative activity by SPR [13] [%] | further results
1 | B1 | 17.7 | 0.047 | 66 | 96 | 395 | 272 | 260 | 110 | 97 | 86 | 17.5 | 0.015 | 17.5 | 0.3 | 0.015 | 860000 | 93.2 | 0.33 | 22 | 101 | kd, fold compared to g7B07 (BLI or SPR) [1]: 0.8 fold; fold higher dissociation rate than g7B07 [5]: 3 fold; Fold off-rate compared to g7B07 [9]: 1.3 fold; koff [9]: 0.0088 s⁻¹; koff [12]: 0.046 s⁻¹
2 | B2 | 1.4 | 0.0018 | 120 | 117 |  |  |  | 98 | 111 | 99 | 1.4 | 0.0018 | 2.3 | 2.8 | 0.0016 | 710000 | 99 | 0.2 | 8 | 103 | fold better affinity than g7B07 [14]: 6.3 fold; fold better off-rate than g7B07 [14]: 3.5 fold; recGal10 crystal dissolution EC50 (T2 h), Assay 2, nebulized [3]: 159 µg/mL; recGal10 crystal dissolution EC50 (T2 h), Assay 2, stressed (4 W at 37 C) [3]: 164 µg/mL; recGal10 crystal dissolution EC50 (T2 h), Assay 2, unstressed (T0) [3]: 191 µg/mL; Amplitude R0 [15]: 647 RU; koff [15]: 0.0018 s⁻¹; kon [15]: 1.3e+06 M⁻¹ s⁻¹; fold better affinity than g7B07 [5]: 4.7 fold; Kd [16]: 1.43 nM; Amplitude R0 [17]: 544 RU; koff [17]: 0.0088 s⁻¹; kon [17]: 1.1e+06 M⁻¹ s⁻¹; Kd [18]: 8 nM; koff [12]: 0.0088 s⁻¹
3 | B3 | 145 | 0.079 | 53 | 82 | 584 | 379 | 309 |  | 94 |  |  |  | 144 | 0.06 | 0.078 | 640000 |  |  |  | 95 | Amplitude R0 [15]: 119 RU; koff [15]: 0.079 s⁻¹; kon [15]: 540000 M⁻¹ s⁻¹; Kd [16]: 145 nM; Amplitude R0 [17]: 30 RU; koff [17]: 0.21 s⁻¹; kon [17]: 510000 M⁻¹ s⁻¹; Kd [18]: 417 nM
